Experimental data published in article PMC9713717.

Target: T1, human NKCC1 (sodium-potassium-chloride transporter NKCC1, SLC12A2) (human), P55011
T1 chain: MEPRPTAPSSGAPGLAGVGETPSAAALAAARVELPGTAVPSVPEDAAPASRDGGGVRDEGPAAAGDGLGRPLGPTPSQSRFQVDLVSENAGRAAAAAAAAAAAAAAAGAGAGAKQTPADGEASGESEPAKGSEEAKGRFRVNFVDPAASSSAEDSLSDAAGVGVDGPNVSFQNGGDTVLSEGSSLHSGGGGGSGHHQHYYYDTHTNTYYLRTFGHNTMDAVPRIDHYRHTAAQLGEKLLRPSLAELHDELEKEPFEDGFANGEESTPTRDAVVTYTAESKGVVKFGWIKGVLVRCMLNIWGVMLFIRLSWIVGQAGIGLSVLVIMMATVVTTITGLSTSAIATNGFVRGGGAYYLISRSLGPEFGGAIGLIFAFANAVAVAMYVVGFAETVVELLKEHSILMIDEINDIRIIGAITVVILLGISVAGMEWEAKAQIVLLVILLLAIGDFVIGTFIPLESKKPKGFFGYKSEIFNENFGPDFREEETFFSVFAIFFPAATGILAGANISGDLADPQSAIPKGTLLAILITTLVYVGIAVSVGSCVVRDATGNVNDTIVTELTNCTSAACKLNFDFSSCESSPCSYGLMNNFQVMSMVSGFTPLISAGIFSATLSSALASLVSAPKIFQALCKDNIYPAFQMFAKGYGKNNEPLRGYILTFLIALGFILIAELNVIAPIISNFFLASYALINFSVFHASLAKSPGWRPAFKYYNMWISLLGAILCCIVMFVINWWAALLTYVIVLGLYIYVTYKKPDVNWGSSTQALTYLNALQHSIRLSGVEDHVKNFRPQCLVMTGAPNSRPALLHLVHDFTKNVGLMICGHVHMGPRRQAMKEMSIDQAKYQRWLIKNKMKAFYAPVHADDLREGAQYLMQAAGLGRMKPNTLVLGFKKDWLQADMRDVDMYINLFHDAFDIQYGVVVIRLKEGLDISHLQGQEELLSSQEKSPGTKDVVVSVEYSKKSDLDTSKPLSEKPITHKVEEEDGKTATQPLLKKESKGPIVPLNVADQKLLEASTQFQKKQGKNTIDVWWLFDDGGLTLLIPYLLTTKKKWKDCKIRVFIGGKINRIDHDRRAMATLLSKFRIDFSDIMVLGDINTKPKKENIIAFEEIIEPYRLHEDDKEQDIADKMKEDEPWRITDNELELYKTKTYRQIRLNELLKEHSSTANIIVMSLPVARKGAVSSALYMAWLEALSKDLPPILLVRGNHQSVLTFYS
Experiment: cryo-EM structure
Conditions: remark: other sources report otherwise

stoichiometry N: 2
B1: human NKCC1 (sodium-potassium-chloride transporter NKCC1, SLC12A2), P55011 1-1212 (natural protein)
chain: MEPRPTAPSSGAPGLAGVGETPSAAALAAARVELPGTAVPSVPEDAAPASRDGGGVRDEGPAAAGDGLGRPLGPTPSQSRFQVDLVSENAGRAAAAAAAAAAAAAAAGAGAGAKQTPADGEASGESEPAKGSEEAKGRFRVNFVDPAASSSAEDSLSDAAGVGVDGPNVSFQNGGDTVLSEGSSLHSGGGGGSGHHQHYYYDTHTNTYYLRTFGHNTMDAVPRIDHYRHTAAQLGEKLLRPSLAELHDELEKEPFEDGFANGEESTPTRDAVVTYTAESKGVVKFGWIKGVLVRCMLNIWGVMLFIRLSWIVGQAGIGLSVLVIMMATVVTTITGLSTSAIATNGFVRGGGAYYLISRSLGPEFGGAIGLIFAFANAVAVAMYVVGFAETVVELLKEHSILMIDEINDIRIIGAITVVILLGISVAGMEWEAKAQIVLLVILLLAIGDFVIGTFIPLESKKPKGFFGYKSEIFNENFGPDFREEETFFSVFAIFFPAATGILAGANISGDLADPQSAIPKGTLLAILITTLVYVGIAVSVGSCVVRDATGNVNDTIVTELTNCTSAACKLNFDFSSCESSPCSYGLMNNFQVMSMVSGFTPLISAGIFSATLSSALASLVSAPKIFQALCKDNIYPAFQMFAKGYGKNNEPLRGYILTFLIALGFILIAELNVIAPIISNFFLASYALINFSVFHASLAKSPGWRPAFKYYNMWISLLGAILCCIVMFVINWWAALLTYVIVLGLYIYVTYKKPDVNWGSSTQALTYLNALQHSIRLSGVEDHVKNFRPQCLVMTGAPNSRPALLHLVHDFTKNVGLMICGHVHMGPRRQAMKEMSIDQAKYQRWLIKNKMKAFYAPVHADDLREGAQYLMQAAGLGRMKPNTLVLGFKKDWLQADMRDVDMYINLFHDAFDIQYGVVVIRLKEGLDISHLQGQEELLSSQEKSPGTKDVVVSVEYSKKSDLDTSKPLSEKPITHKVEEEDGKTATQPLLKKESKGPIVPLNVADQKLLEASTQFQKKQGKNTIDVWWLFDDGGLTLLIPYLLTTKKKWKDCKIRVFIGGKINRIDHDRRAMATLLSKFRIDFSDIMVLGDINTKPKKENIIAFEEIIEPYRLHEDDKEQDIADKMKEDEPWRITDNELELYKTKTYRQIRLNELLKEHSSTANIIVMSLPVARKGAVSSALYMAWLEALSKDLPPILLVRGNHQSVLTFYS
